{"source": "patent US12312641B2", "about": "“Sensitivity marker for antibody-drug conjugate” (priority 2018, dated 2025)", "tested_on": "patient-derived xenograft (PDX) model", "assay": "Anti-tumor effect (TGI) in patient-derived xenograft models, 21 days after administration", "format": "in vivo, nu/nu mice", "conditions": "for TGI (%): 10 mg/kg tail vein, 21 days after administration; for Proportion of PDX models showing TGI of 75% or more: TGI at 21 days", "experimental": "Mice: Female nu/nu mice (Envigo) aged 5-8 weeks were acclimatized under SPF conditions for 3 days or more prior to experimental use. Mice were fed with sterile solid feed (Teklad2919, Envigo) and given reverse osmosis membrane-treated water (containing 2 ppm chlorine).\nMeasurements and Calculation formula: long and short diameters of tumors were measured twice a week with an electronic digital caliper (CD-6PMX, Mitutoyo Corp.) and tumor volume (mm^3) was calculated using the following calculation formula: Tumor volume (mm^3)=0.52×Long diameter (mm)×[Short diameter (mm)]^2\nTumor fragments from each cancer patient were subcutaneously implanted into mice and passaged. The obtained tumors were used to subcutaneously implant tumor fragments, which were cut to approximately 5×5×5 mm^3, into the left abdomen of the female nu/nu mice, thereby each patient-derived xenograft (PDX) model was created. Mice were randomly grouped when the mean transplanted tumor volume reached 150 to 300 mm^3 (Day 0). On the same day as grouping, the antibody-drug conjugate (1) was administered into the tail vein at a dose of 10 mg/kg. A formulation buffer was similarly administered at a volume of 10 mL/kg as a negative control. Tumor growth inhibition rates (TGI (%)) were calculated according to the following calculation formula using each tumor volume 21 days after administration (Table 1). Tumor growth inhibition rate (%)=100×(1−Tf/mean Cf) • Tf: tumor volume 21 days after administration of antibody-drug conjugate (1) • mean Cf: arithmetic mean tumor volume 21 days after administration in negative control group mice\nData on the amount of gene expression in each PDX model used in Example 2 were obtained and normalized at Champions Oncology, Inc., thereby a RPKM value was obtained. To the RPKM value, 1 was added, and the sum was transformed to a logarithmic (log2) to obtain a log2[RPKM+1] value (Table 2). The log2[RPKM+1] value was used to analyze the relationship between the anti-tumor activity of antibody-drug conjugate (1) in each PDX model (Table 1) and the amount of expression of the hTROP2 gene and the SLFN11 gene. […] When TGI was 80% or more, the prediction rate decreased to an order of 60% only when the log2[RPKM+1] value of the hTROP2 gene exceeded 7.5 and the log2[RPKM+1] value of the SLFN11 gene exceeded 1.0 and was less than or equal to 2.", "data": [{"molecule": "antibody-drug conjugate (1): humanized anti-hTROP2 antibody (SEQ ID NO: 1 residues 20-470, SEQ ID NO: 2 residues 21-234) conjugated to the exatecan-derivative drug-linker via a thioether bond (conjugate, chains of the INN, looked up, exatecan-derivative drug-linker) VH: QVQLVQSGAEVKKPGASVKVSCKASGYTFTTAGMQWVRQAPGQGLEWMGWINTHSGVPKYAEDFKGRVTISADTSTSTAYLQLSSLKSEDTAVYYCARSGFGSSYWYFDVWGQGTLVTVSS VL: DIQMTQSPSSLSASVGDRVTITCKASQDVSTAVAWYQQKPGKAPKLLIYSASYRYTGVPSRFSGSGSGTDFTLTISSLQPEDFAVYYCQQHYITPLTFGQGTKLEIK", "values": [{"measurement": "TGI (%)", "setting": "PDX model #1, Breast", "result": 98.1, "unit": "%"}, {"measurement": "TGI (%)", "setting": "PDX model #2, Lung", "result": 77.3, "unit": "%"}, {"measurement": "TGI (%)", "setting": "PDX model #3, Cholangiocarcinoma", "result": 48.0, "unit": "%"}, {"measurement": "TGI (%)", "setting": "PDX model #4, Pancreatic", "result": 48.5, "unit": "%"}, {"measurement": "TGI (%)", "setting": "PDX model #5, Colorectal", "result": 65.0, "unit": "%"}, {"measurement": "TGI (%)", "setting": "PDX model #6, Breast", "result": 95.5, "unit": "%"}, {"measurement": "TGI (%)", "setting": "PDX model #7, Breast", "result": 94.7, "unit": "%"}, {"measurement": "TGI (%)", "setting": "PDX model #8, Head and neck", "result": 55.6, "unit": "%"}, {"measurement": "TGI (%)", "setting": "PDX model #9, Head and neck", "result": 99.1, "unit": "%"}, {"measurement": "TGI (%)", "setting": "PDX model #10, Lung", "result": 97.7, "unit": "%"}, {"measurement": "TGI (%)", "setting": "PDX model #11, Lung", "result": 95.4, "unit": "%"}, {"measurement": "TGI (%)", "setting": "PDX model #12, Breast", "result": 95.8, "unit": "%"}, {"measurement": "TGI (%)", "setting": "PDX model #13, Lung", "result": 70.0, "unit": "%"}, {"measurement": "TGI (%)", "setting": "PDX model #14, Breast", "result": 90.1, "unit": "%"}, {"measurement": "TGI (%)", "setting": "PDX model #15, Cholangiocarcinoma", "result": 61.2, "unit": "%"}, {"measurement": "TGI (%)", "setting": "PDX model #16, Colorectal", "result": 52.7, "unit": "%"}, {"measurement": "TGI (%)", "setting": "PDX model #17, Breast", "result": 62.6, "unit": "%"}, {"measurement": "TGI (%)", "setting": "PDX model #18, Lung", "result": 18.4, "unit": "%"}, {"measurement": "TGI (%)", "setting": "PDX model #19, Lung", "result": 50.3, "unit": "%"}, {"measurement": "Proportion of PDX models showing TGI of 75% or more", "setting": "log2[RPKM+1]: hTROP2 >6.5, SLFN11 >1, 10 models", "result": 60, "unit": "%"}, {"measurement": "Proportion of PDX models showing TGI of 75% or more", "setting": "log2[RPKM+1]: hTROP2 >6.5, SLFN11 >2, 6 models", "result": 83, "unit": "%"}, {"measurement": "Proportion of PDX models showing TGI of 75% or more", "setting": "log2[RPKM+1]: hTROP2 >6.5, SLFN11 >3, 3 models", "result": 100, "unit": "%"}, {"measurement": "Proportion of PDX models showing TGI of 75% or more", "setting": "log2[RPKM+1]: hTROP2 >6.5, SLFN11 All models, 15 models", "result": 47, "unit": "%"}, {"measurement": "Proportion of PDX models showing TGI of 75% or more", "setting": "log2[RPKM+1]: hTROP2 >7.0, SLFN11 >1, 9 models", "result": 67, "unit": "%"}, {"measurement": "Proportion of PDX models showing TGI of 75% or more", "setting": "log2[RPKM+1]: hTROP2 >7.0, SLFN11 >2, 6 models", "result": 83, "unit": "%"}, {"measurement": "Proportion of PDX models showing TGI of 75% or more", "setting": "log2[RPKM+1]: hTROP2 >7.0, SLFN11 >3, 3 models", "result": 100, "unit": "%"}, {"measurement": "Proportion of PDX models showing TGI of 75% or more", "setting": "log2[RPKM+1]: hTROP2 >7.0, SLFN11 All models, 11 models", "result": 55, "unit": "%"}, {"measurement": "Proportion of PDX models showing TGI of 75% or more", "setting": "log2[RPKM+1]: hTROP2 >7.5, SLFN11 >1, 6 models", "result": 83, "unit": "%"}, {"measurement": "Proportion of PDX models showing TGI of 75% or more", "setting": "log2[RPKM+1]: hTROP2 >7.5, SLFN11 >2, 4 models", "result": 100, "unit": "%"}, {"measurement": "Proportion of PDX models showing TGI of 75% or more", "setting": "log2[RPKM+1]: hTROP2 >7.5, SLFN11 >3, 2 models", "result": 100, "unit": "%"}, {"measurement": "Proportion of PDX models showing TGI of 75% or more", "setting": "log2[RPKM+1]: hTROP2 >7.5, SLFN11 All models, 8 models", "result": 63, "unit": "%"}, {"measurement": "Proportion of PDX models showing TGI of 75% or more", "setting": "log2[RPKM+1]: hTROP2 >8.0, SLFN11 >1, 5 models", "result": 80, "unit": "%"}, {"measurement": "Proportion of PDX models showing TGI of 75% or more", "setting": "log2[RPKM+1]: hTROP2 >8.0, SLFN11 >2, 3 models", "result": 100, "unit": "%"}, {"measurement": "Proportion of PDX models showing TGI of 75% or more", "setting": "log2[RPKM+1]: hTROP2 >8.0, SLFN11 >3, 2 models", "result": 100, "unit": "%"}, {"measurement": "Proportion of PDX models showing TGI of 75% or more", "setting": "log2[RPKM+1]: hTROP2 >8.0, SLFN11 All models, 7 models", "result": 57, "unit": "%"}, {"measurement": "Proportion of PDX models showing TGI of 75% or more", "setting": "log2[RPKM+1]: hTROP2 All models, SLFN11 >1, 13 models", "result": 54, "unit": "%"}, {"measurement": "Proportion of PDX models showing TGI of 75% or more", "setting": "log2[RPKM+1]: hTROP2 All models, SLFN11 >2, 9 models", "result": 67, "unit": "%"}, {"measurement": "Proportion of PDX models showing TGI of 75% or more", "setting": "log2[RPKM+1]: hTROP2 All models, SLFN11 >3, 5 models", "result": 80, "unit": "%"}, {"measurement": "Proportion of PDX models showing TGI of 75% or more", "setting": "log2[RPKM+1]: hTROP2 All models, SLFN11 All models, 19 models", "result": 47, "unit": "%"}, {"measurement": "Prediction rate when TGI was 80% or more", "setting": "log2[RPKM+1]: hTROP2 exceeded 7.5 and SLFN11 exceeded 1.0 and less than or equal to 2", "result": "~60", "unit": "%"}, {"measurement": "Proportion of animal models showing TGI of 75% or more", "setting": "log2[RPKM+1]: hTROP2 exceeds 7.5 and SLFN11 exceeds 2.0, or hTROP2 exceeds 6.5 and SLFN11 exceeds 3.0", "result": 100, "unit": "%"}]}]}
